{"source": "patent US20250382588A1", "about": "“CHIMERIC AAV AND USES THEREOF” (priority 2023, published 2025)", "molecules": {"B1": {"name": "AAV8R9: AAV8R capsid mutant V125I + F536Y, SEQ ID NO: 10 (protein)", "chain": "MAADGYLPDWLEDNLSEGIREWWALKPGAPKPKANQQKQDDGRGLVLPGYKYLGPFNGLDKGEPVNAADAAALEHDKAYDQQLQAGDNPYLRYNHADAEFQERLQEDTSFGGNLGRAVFQAKKRILEPLGLVEEGAKTAPGKKRPVEPSPQRSPDSSTGIGKKGQQPARKRLNFGQTGDSESVPDPQPLGEPPAAPSGVGPNTMAAGGGAPMADNNEGADGVGSSSGNWHCDSTWLGDRVITTSTRTWALPTYNNHLYKQISNGTSGGATNDNTYFGYSTPWGYFDFNRFHCHFSPRDWQRLINNNWGFRPKRLSFKLFNIQVKEVTQNEGTKTIANNLTSTIQVFTDSEYQLPYVLGSAHQGCLPPFPADVFMIPQYGYLTLNDGSQAVGRSSFYCLEYFPSQMLRTGNNFQFTYTFEDVPFHSSYAHSQSLDRLMNPLIDQYLYYLSRTQTTGGTANTQTLGFSQGGPNTMANQAKNWLPGPCYRQQRVSTTTGQNNNSNFAWTAGTKYHLNGRNSLANPGIAMATHKDDEERYFPSNGILIFGKQNAARDNADYSDVMLTSEEEIKTTNPVATEEYGIVADNLQRGNLADQDYTKTARQAATADVNSQGALPGMVWQNRDVYLQGPIWAKIPHTDGNFHPSPLMGGFGLKHPPPQILIKNTPVPADPPTTFNQSKLNSFITQYSTGQVSVEIEWELQKENSKRWNPEIQYTSNYYKSINVDFAVNTEGVYSEPRPIGTRYLTRNL"}, "B2": {"name": "AAV8R1: AAV8R capsid mutant V183E, SEQ ID NO: 2 (protein)", "chain": "B1 chain with I125V, V183E, Y536F"}, "B3": {"name": "AAV8R2: AAV8R capsid mutant N411S, SEQ ID NO: 3 (protein)", "chain": "B1 chain with I125V, N411S, Y536F"}, "B4": {"name": "AAV8R10: AAV8R capsid mutant V125I + A606S, SEQ ID NO: 11 (protein)", "chain": "B1 chain with Y536F, A606S"}, "B5": {"name": "AAV8R14: AAV8R capsid mutant V125I + A606S + T495A, SEQ ID NO: 15 (protein)", "chain": "B1 chain with T495A, Y536F, A606S"}, "B6": {"name": "AAV8R3: AAV8R capsid mutant Y447F, SEQ ID NO: 4 (protein)", "chain": "B1 chain with I125V, Y447F, Y536F"}, "B7": {"name": "AAV8R11: AAV8R capsid mutant V125I + T495A, SEQ ID NO: 12 (protein)", "chain": "B1 chain with T495A, Y536F"}, "B8": {"name": "AAV8R13: AAV8R capsid mutant V125I + F536Y + T495A, SEQ ID NO: 14 (protein)", "chain": "B1 chain with T495A"}}, "type_in_all_cases": "in vivo, mice", "key": {"[1]": {"system": "MSNs in the striatum (STR)", "test": "Promoter activity driving EYFP reporter expression after AAV injection into the SNr: striatum", "settings": "numbers of YFP-expressing neurons per animal", "source_text": "(§1) Brain profiles of two epigenetic marks for enhancers and promoters, monomethylation of histone H3 lysine 4 (H3K4me1) and acetylation of histone H3 lysine 27 (H3K27ac) were checked and approximately 2 kilobase-long sequences around the transcriptional start site (TSS) that have high levels of H3K4me1 and/or H3K27ac were identified in mouse brain. Homologous sequences at equivalent positions of the human genome were then cloned onto an AAV backbone, and the activity of the homologous sequences in directing reporter expression was tested in mice after injections of AAVs into the SNr (FIG. 3A-C, TABLE 3).\nG88P2 (2259 bp) was cloned with the following primers: 5′-[…] (SEQ ID NO.: 36) and 3-[…] (SEQ ID NO.: 37). To increase the payload of AAV genome, the G88P2 promoter was shorted using restriction enzymes, and two derivatives, G88P3 and G88P7, were made which were 1395-bp and 896-bp long, respectively (FIG. 3A-3C). Comparative efficiency in labeling MSNs for the two shortened promoters was observed. For mice that received viral injections into the SNr, viruses expressing EYFP driven by G88P3 and G88P7 promoters labeled 3.7±0.66×104 and 3.95±0.73×104 MSNs per mouse, respectively, compared to 1.61±0.16×104 labeled MSNs by hSyn promoter (FIG. 4B).\n(§2) Region-selective promoter identification was based on the Allen Brain Atlas in situ hybridization (ISH) data (mouse.brain-map.org/). Genes highly expressed in the striatum but not in other parts of the basal ganglia were first selected as candidates. H3K4me1 and H3K27ac are known epigenetic marks for active promoters and enhancers. Thus, we identified regions with high levels of these two chromatin modification marks in mouse brain as candidate regions based on the ENCODE annotation data on the UCSC Genome Browser (genome.ucsc.edu/). To further extend the promoters' potential application in primates, the sequences of interest were PCR-amplified from human genomic DNA. Based on the above strategies, GPR88 was selected as a candidate gene. The nucleotide sequence upstream of the start codon with high H3K4me1 and H3K27ac levels was selected as the candidate promoter sequence. G88P2 (2259 bp) was cloned with the following primers: 5′-[…]-3′ (SEQ ID NO: 36), 5′-[…]-3′ (SEQ ID NO: 58). G88P3 (1395 bp) and G88P7 (896 bp) were further shortened by subcloning.\nPromoters were subcloned into a pAAV-hSyn-EYFP vector derived from pAAV-hSyn-EGFP (Addgene, 50465) to replace the hSyn promoter by using appropriate restriction enzyme combinations. To generate pAAV-G88P7-DIO-tdTomato, a DIO-tdTomato cassette was subcloned into pAAV-G88P7-EYFP to replace EYFP by restriction enzyme digestion. To generate pAAV-G88P3-HA-hM3Dq, promoter G88P3 was subcloned into pAAV-hSyn-HA-hM3Dq-IRES-mCitrine (Addgene, 50463) via the EcoRI/BamHI restriction sites to replace the hSyn promoter and IRES-mCitrine was removed afterwards by restriction enzyme digestion. To generate pAAV-G88P3-HA-hM3Dq-2A-EYFP, a 2A-EYFP fragment was subcloned into pAAV-G88P3-HA-hM3Dq after hM3Dq. […]\nImages were acquired using a confocal microscope (Carl Zeiss, LSM880) and an Axiolmager.Z1 microscope with apotome (Carl Zeiss). […] Every sixth section was analyzed, and numbers of EYFP+ cells were multiplied by six to acquire the approximate total number and mean number of cells per animal. […]"}, "substantia nigra (SN)": {"system": "substantia nigra (SN)", "test": "Promoter activity driving EYFP reporter expression after AAV injection into the SNr: substantia nigra", "settings": "numbers of YFP-expressing neurons per animal", "source_text": "as §1\nas §2, with “subcloning. […]” for “subcloning.”\nImages were acquired using a confocal microscope (Carl Zeiss, LSM880) and an Axiolmager.Z1 microscope with apotome (Carl Zeiss). […] Every sixth section was analyzed, and numbers of EYFP+ cells were multiplied by six to acquire the approximate total number and mean number of cells per animal. Images were processed using ImageJ (NIH, USA), and final quantifications were independently performed manually by two blinded experimenters."}, "[2]": {"system": "striatal D1 MSNs (striatonigral projection neurons)", "test": "Retrograde labeling of striatonigral projection neurons after AAV injection into the SNr", "settings": "AAV8R capsid mutants; numbers of labeled neurons per animal", "experimental": "To improve efficiency, multiple rounds of mutations of AAV capsids were performed on a series of different serotypes. Mutations were introduced at three sites in the AAV8 capsid protein to make AAV8R, including N385D, insertion of […] (SEQ ID NO: 31) at position 588, and TS711-712IN. Two additional mutations of V183E and N411S were incorporated into the AAV8R12 capsid protein (FIG. 1A). The labeling pattern of the AAV8R12 capsid and G88 promoter combination was determined.\nFirst, the polypeptide fragment RGNLADODYTKTARQAATAD (SEQ ID NO.: 31) was inserted at the N587-R588 position; two other point mutations of the AAV2 Cap protein were made to develop rAAV2-retro. Similar mutations were then placed at equivalent positions for four other AAV serotypes (FIGS. 1A-IC and 25, TABLE 1), AAV1/5/6/8 (FIG. 1A). […] When administered into the SNr, 4.86±0.22 times EYFP positive MSNs in mice infected by AAV8R-hSyn-EYFP were observed as compared to those infected by rAAV2-retro-hSyn-EYFP (FIG. 2A-2C).\nBaseline infectivity of rAAV2-retro was approximately 0.2±0.03×10^4 cells per striatal hemisphere (using a hSyn promoter) (TABLE 2). […] Compared to the current standard retrograde AAV, rAAV2-retro, AAV8R12 labeled 7.72±0.78-times more MSNs after nigral delivery (FIG. 2B-2C, TABLE 1). […] The AAV8R12 was generated using the AAV8R plasmid as a template.\nMice were anesthetized with sodium pentobarbital (Nembutal; 80 mg/kg, i.p.), and then placed into a stereotaxic device (KOPF). Eye cream was applied on both corneas to avoid dehydration. The skull above the targeted areas was thinned with a dental drill and carefully removed. Injections were conducted with a 10 μL syringe connected to a 33-Gauge needle (Neuros; Hamilton), using a microsyringe pump (Legato 130, KD Scientific). A total volume of 200 nL virus was injected into the SNr at a speed of 20 nL/min. The coordinates for the SNr were 3.4 mm posterior, 1.3 mm lateral, 4.8 mm ventral to the bregma.\nHEK293T cells (ATCC) were co-transfected by calcium phosphate with an AAV vector plasmid, an AAV Rep-Cap plasmid (rAAV2-retro, AAV1R, AAV5R, AAV6R, AAV8R, and AAV8R1-14), and the pAdDeltaF6 helper plasmid (Addgene, 112867) harboring the adenoviral genes required for the AAV life cycle. HEK293T cells grown in 15 cm cell culture dishes were co-transfected with the mixture of three plasmids (1:1:1) at 80% confluency. 48-72 hours post-transfection, cells were collected and resuspended in a buffer containing 150 mM NaCl and 100 mM Tris-HCl (pH 8.0). Cells were lysed by repeated freeze-thaw cycles in liquid nitrogen and a 37° C. water bath. AAV particles were purified and concentrated using Millipore Amicon 100K columns (Merck Millipore, UFC910008). Encapsidated viral DNA was quantitated by qPCR (Thermo Fisher) with primers recognizing the viral WPRE and/or ITR sequences following denaturation of the AAV particles using Proteinase K. Titers were calculated as genome copies per milliliter.\nImages were acquired using a confocal microscope (Carl Zeiss, LSM880) and an Axiolmager.Z1 microscope with apotome (Carl Zeiss). Brain structures were identified microscopically and in digital photos using a mouse brain atlas. To analyze the number of EYFP+ cells in the striatum, slices from rostral to caudal striatum were used. Every sixth section was analyzed, and numbers of EYFP+ cells were multiplied by six to acquire the approximate total number and mean number of cells per animal. Images were processed using ImageJ (NIH, USA), and final quantifications were independently performed manually by two blinded experimenters."}}, "note": "Substitutions are numbered along the chain they refer to. In names and notes the source's numbering stands.", "data": [{"molecule": "G88P2: 2259-bp promoter from the gene GPR88, SEQ ID NO: 59", "values": [{"measurement": "Activity Level STR", "setting": "[1]", "value": "++++ (>25 k)"}, {"measurement": "Activity Level SN", "setting": "substantia nigra (SN)", "value": "+ (<5 k)"}]}, {"molecule": "B1", "values": [{"measurement": "Labeling Efficiency in Striatonigral Pathway", "setting": "[2]", "value": "+ (<5 k)"}]}, {"molecule": "B2", "values": [{"measurement": "Labeling Efficiency in Striatonigral Pathway", "setting": "[2]", "value": "+ (<5 k)"}]}, {"molecule": "B3", "values": [{"measurement": "Labeling Efficiency in Striatonigral Pathway", "setting": "[2]", "value": "+ (<5 k)"}]}, {"molecule": "B4", "values": [{"measurement": "Labeling Efficiency in Striatonigral Pathway", "setting": "[2]", "value": "+ (<5 k)"}]}, {"molecule": "B5", "values": [{"measurement": "Labeling Efficiency in Striatonigral Pathway", "setting": "[2]", "value": "++ (5 k-10 k)"}]}, {"molecule": "B6", "values": [{"measurement": "Labeling Efficiency in Striatonigral Pathway", "setting": "[2]", "value": "+ (<5 k)"}]}, {"molecule": "B7", "values": [{"measurement": "Labeling Efficiency in Striatonigral Pathway", "setting": "[2]", "value": "+ (<5 k)"}]}, {"molecule": "B8", "values": [{"measurement": "Labeling Efficiency in Striatonigral Pathway", "setting": "[2]", "value": "++ (5 k-10 k)"}]}]}
